# From patent US20260274968A1 (FUSE BIOTHERAPEUTICS, published 2026)
# Where a chain is given by its changes, count along the chain named.
# B1: IL-18AV released from FUSE-442 by enterokinase (ligand)
# chain: YFGKLESKLSVIRNLNDQVLFIDQGNRPLFEDMTDSDVRDNAPRTIFIISMYKDSQPRGMAVTISVKVEKISTLSVENKIISFKEMNPPDNIKDTKSDIIFFQRSVPGHDNKMQFESSSYEGYFLAVEKERDLFKLILKKEDELGDRSIMFTVQNED
# B2: IL-18mut2AV released from FUSE-424 by enterokinase (ligand)
# chain: B1 chain with M51K, K53G, M60L, M113V
# B3: FUSE-782 (antibody, human IgG1, kappa, L234A L235A)
# heavy 1: QVQLVESGGGVVQPGRSLRLDCKASGITFSNSGMHWVRQAPGKGLEWVAVIWYDGSKRYYADSVKGRFTISRDNSKNTLFLQMSSLRAEDTAVYYCATNDDYWGQGTLVTVSSASTKGPSVFPLAPSSKSTSGGTAALGCLVKDYFPEPVTVSWNSGALTSGVHTFPAVLQSSGLYSLSSVVTVPSSSLGTQTYICNVNHKPSNTKVDKKVEPKSCDKTHTCPPCPAPEAAGGPSVFLFPPKPKDTLMISRTPEVTCVVVDVSHEDPEVKFNWYVDGVEVHNAKTKPREEQYNSTYRVVSVLTVLHQDWLNGKEYKCKVSNKALPAPIEKTISKAKGQPREPQVYTLPPSREEMTKNQVSLSCAVKGFYPSDIAVEWESNGQPENNYKTTPPVLDSDGSFFLVSKLTVDKSRWQQGNVFSCSVMHEALHNRFTQKSLSLSPGK
# heavy 2: QVQLVESGGGVVQPGRSLRLDCKASGITFSNSGMHWVRQAPGKGLEWVAVIWYDGSKRYYADSVKGRFTISRDNSKNTLFLQMSSLRAEDTAVYYCATNDDYWGQGTLVTVSSASTKGPSVFPLAPSSKSTSGGTAALGCLVKDYFPEPVTVSWNSGALTSGVHTFPAVLQSSGLYSLSSVVTVPSSSLGTQTYICNVNHKPSNTKVDKKVEPKSCDKTHTCPPCPAPEAAGGPSVFLFPPKPKDTLMISRTPEVTCVVVDVSHEDPEVKFNWYVDGVEVHNAKTKPREEQYNSTYRVVSVLTVLHQDWLNGKEYKCKVSNKALPAPIEKTISKAKGQPREPQVYTLPPSREEMTKNQVSLWCLVKGFYPSDIAVEWESNGQPENNYKTTPPVLDSDGSFFLYSKLTVDKSRWQQGNVFSCSVMHEALHNHYTQKSLSLSPGGGGGSGGGGSGGGGSGGGGSAAEPVEDNSINFVAMKFIDNTLYFIAENDENGGGSYFGKLESKLSVIRNLNDQVLFIDQGNRPLFEDMTDSDSRDNAPRTIFIISKYGDSQPRGLAVTISVKSEKISTLSSENKIISFKEMNPPDNIKDTKSDIIFFQRSVPGHDNKVQFESSSYEGYFLASEKERDLFKLILKKEDELGDRSIMFTVQNED
# light: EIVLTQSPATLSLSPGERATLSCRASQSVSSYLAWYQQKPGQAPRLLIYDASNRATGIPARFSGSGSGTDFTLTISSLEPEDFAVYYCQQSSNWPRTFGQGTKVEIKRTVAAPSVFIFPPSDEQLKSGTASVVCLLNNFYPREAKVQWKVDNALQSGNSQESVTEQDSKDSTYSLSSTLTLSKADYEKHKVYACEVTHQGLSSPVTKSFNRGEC
# B4: FUSE-783 (antibody, human IgG1, kappa, L234A L235A)
# heavy 1: B3 heavy 1
# heavy 2: B3 heavy 2 with S471V, S535V, S565V, S573V, S624V
# light: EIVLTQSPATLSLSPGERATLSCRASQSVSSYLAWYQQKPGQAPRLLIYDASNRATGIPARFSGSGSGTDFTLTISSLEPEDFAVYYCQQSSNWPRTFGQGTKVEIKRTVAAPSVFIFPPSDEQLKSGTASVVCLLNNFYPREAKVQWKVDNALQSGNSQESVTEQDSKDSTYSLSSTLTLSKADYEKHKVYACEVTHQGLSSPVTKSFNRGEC
# How the values were obtained:
# Test in all cases: cell-based or functional assay
# [1] = target: T1, human IL-18 receptor complex (IL-18Rα/β) (human, UniProt Q13478 19-541; O95256 20-599)
# T1 sequence (looked up) 1: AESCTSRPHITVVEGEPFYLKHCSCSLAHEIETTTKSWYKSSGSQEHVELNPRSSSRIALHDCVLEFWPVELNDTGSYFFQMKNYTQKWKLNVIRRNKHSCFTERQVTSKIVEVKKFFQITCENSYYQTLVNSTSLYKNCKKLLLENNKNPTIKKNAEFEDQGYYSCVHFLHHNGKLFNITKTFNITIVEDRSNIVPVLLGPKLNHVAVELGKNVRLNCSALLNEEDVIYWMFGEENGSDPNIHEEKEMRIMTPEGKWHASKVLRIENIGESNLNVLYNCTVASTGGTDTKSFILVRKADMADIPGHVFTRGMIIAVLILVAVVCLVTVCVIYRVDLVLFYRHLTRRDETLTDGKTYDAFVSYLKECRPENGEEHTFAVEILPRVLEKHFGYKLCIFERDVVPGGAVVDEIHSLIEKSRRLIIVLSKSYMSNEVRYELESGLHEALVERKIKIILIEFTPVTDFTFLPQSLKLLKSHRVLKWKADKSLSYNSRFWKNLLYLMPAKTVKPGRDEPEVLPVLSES
# T1 sequence (looked up) 2: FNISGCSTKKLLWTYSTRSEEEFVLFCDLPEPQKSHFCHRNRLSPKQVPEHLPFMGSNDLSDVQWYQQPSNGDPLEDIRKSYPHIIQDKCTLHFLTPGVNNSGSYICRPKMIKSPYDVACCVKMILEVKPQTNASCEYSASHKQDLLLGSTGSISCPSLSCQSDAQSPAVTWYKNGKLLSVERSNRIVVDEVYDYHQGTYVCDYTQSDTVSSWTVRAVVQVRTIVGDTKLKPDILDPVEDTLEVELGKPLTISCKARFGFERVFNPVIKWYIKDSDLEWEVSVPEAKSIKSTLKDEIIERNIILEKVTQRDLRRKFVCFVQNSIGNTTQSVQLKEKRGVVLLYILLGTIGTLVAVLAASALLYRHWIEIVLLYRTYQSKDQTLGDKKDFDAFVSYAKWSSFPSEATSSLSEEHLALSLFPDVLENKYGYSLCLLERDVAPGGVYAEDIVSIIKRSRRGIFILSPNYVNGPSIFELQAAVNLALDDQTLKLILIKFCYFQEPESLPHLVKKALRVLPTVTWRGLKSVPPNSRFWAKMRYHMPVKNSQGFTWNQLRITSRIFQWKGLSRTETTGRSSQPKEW
# [2] = target: T2, human recombinant IL-18-BP (human, UniProt O95998 31-194)
# T2 sequence (looked up): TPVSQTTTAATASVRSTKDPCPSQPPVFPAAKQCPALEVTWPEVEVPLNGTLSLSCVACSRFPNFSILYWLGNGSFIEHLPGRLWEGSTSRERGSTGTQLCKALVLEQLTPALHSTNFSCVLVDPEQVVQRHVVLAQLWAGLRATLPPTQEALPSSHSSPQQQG
# [3] = target: T1, human IL-18 receptor complex (IL-18Rα/β); remark: listed apart in the source
# [4] = target: T1, human IL-18 receptor complex (IL-18Rα/β); remark: listed apart in the source
binder,measurement,setting,value
B1,"EC50-SEAP, HEK-Blue IL-18 reporter cells, EK-cleaved FUSE-442 titrated in medium alone (row 'FUSE442 + EK')",[1],0.0186 ng/mL
same,"EC50-SEAP, HEK-Blue IL-18 reporter cells, EK-cleaved FUSE-442 titrated in medium with 1.25 µg/ml rhIL-18BP (row 'FUSE442 + EK +BP')",[2],0.211 ng/mL
B2,"EC50-SEAP, HEK-Blue IL-18 reporter cells, EK-cleaved FUSE-424 titrated in medium alone (table G beside graph F 'EK-FUSE424'; the table row itself is labelled 'FUSE442 + EK')",[3],0.0034 ng/mL
B3,"IL18 biological activity on HEK Blue IL18 (trans activity only), attenuation relative to recombinant human IL18",[4],> 100000 fold
same,"SEAP release of PD-1 decorated HEK Blue IL18 (cis activity), increase relative to non targeted FUSE827",[4],~100 fold
same,"SEAP release, PD-1 decorated HEK Blue IL-18 against non-decorated HEK Blue IL18",[4],~100 fold
B4,"IL18 biological activity on HEK Blue IL18 (trans activity only), attenuation relative to recombinant human IL18",[4],~1000 fold
same,"SEAP release of PD-1 decorated HEK Blue IL18 (cis activity), increase relative to non targeted FUSE775",[4],~30 fold
same,"SEAP release, PD-1 decorated HEK Blue IL-18 against non-decorated HEK Blue IL18",[4],~30 fold
